# Assays:
# GalacTag7_fHbp = molecular target: T1, GalacTag7_fHbp (Neisseria meningitidis serogroup B / …, UniProt E6MV22 32-274); assay: mixed in vitro at room temperature ~16 h, SDS-PAGE
# T1 construct: Fusion of a GBS BP-2a tag peptide with N. meningitidis fHbp variant 1.1
# T1 sequence: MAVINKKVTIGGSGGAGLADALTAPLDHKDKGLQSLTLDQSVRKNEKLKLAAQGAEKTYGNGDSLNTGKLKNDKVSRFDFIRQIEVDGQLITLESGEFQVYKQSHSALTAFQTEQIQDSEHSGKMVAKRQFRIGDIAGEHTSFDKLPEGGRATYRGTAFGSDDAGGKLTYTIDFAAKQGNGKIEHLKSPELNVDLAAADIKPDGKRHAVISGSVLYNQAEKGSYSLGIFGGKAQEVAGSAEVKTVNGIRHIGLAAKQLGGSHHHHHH
# Description: (§1) Each GalacDock/GalacTag pair was mixed in vitro at a 1:1 molar ratio at room temperature for approximately 16 hours, and samples were then subjected to SDS-PAGE electrophoresis.
# [1] = molecular target: T2, GalacTag6_GBSFerritinLMG14747; assay: SDS-PAGE and HPLC-SEC (FIG. 4)
# T2 construct: Self-assembled ferritin nanoparticle displaying GalacTag6; also called GalacTag6 + Ferritin NP Subunit: LMG_14747
# T2 chain: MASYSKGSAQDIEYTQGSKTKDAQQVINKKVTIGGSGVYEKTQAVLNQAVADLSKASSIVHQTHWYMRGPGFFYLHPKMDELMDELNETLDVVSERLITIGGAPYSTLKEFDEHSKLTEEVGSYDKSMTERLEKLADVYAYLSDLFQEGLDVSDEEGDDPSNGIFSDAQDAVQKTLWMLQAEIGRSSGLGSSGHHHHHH
# GalacTag6_fHbp [2] = molecular target: T3, GalacTag6_fHbp; assay: 1:1 molar mix, room temperature ~16 h, SDS-PAGE
# T3 construct: Fusion of a GBS BP-2a tag peptide with N. meningitidis fHbp variant 1.1; also called GalacTag6_ffibp; wt GalacTag
# T3 chain: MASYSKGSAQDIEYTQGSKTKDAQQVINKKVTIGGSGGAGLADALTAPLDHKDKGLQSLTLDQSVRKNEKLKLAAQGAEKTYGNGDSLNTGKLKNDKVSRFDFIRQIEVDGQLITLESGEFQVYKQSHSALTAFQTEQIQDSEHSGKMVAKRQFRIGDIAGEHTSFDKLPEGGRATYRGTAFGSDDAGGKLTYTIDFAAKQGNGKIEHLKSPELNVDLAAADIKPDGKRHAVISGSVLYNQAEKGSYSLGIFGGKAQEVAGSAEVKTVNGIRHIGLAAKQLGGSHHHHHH
# Description: as §1
# GalacTag6_fHbp (N636A) = molecular target: T4, GalacTag6_fHbp (N636A); assay: mixed in vitro at room temperature ~16 h, SDS-PAGE (FIG. 3A)
# T4 construct: also called variant GalacTag6_fHbp
# T4 chain: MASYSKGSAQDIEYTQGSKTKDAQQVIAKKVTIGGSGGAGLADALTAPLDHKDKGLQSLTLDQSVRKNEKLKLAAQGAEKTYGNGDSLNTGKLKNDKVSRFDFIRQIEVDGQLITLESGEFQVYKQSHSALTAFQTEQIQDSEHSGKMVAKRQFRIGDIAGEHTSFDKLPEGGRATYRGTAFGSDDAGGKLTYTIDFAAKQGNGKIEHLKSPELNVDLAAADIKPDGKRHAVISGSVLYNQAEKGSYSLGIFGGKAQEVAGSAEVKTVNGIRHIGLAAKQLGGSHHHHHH
# Description: (§2) Using these variant GalacDock6 and GalacTag6_fHbp polypeptides, pairs as shown in Table 3 were mixed in vitro at a 1:1 molar ratio at room temperature for approximately 16 hours, and samples were then subjected to SDS-PAGE electrophoresis.
# [3] = molecular target: T5, GalacTag6_GBSFerritinDK-PW-092+N-terminal helix; assay: 1:1 mix with the nanoparticle, room temperature ~16 h, SDS-PAGE and HPLC-SEC (FIG. 6)
# T5 construct: Self-assembled ferritin nanoparticle displaying GalacTag6; also called GalacTag6_GBSFerritinDK-PW-092+ helix; GalacTag6 + GBS ferritin NP subunit from DK-092-PW w/N-terminal helix
# T5 chain: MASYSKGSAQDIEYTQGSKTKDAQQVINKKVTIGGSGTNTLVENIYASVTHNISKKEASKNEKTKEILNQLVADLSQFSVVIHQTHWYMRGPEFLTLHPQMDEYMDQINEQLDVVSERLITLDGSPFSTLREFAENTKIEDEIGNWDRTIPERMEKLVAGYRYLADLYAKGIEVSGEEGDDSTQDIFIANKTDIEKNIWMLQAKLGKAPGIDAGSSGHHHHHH
# [4] = molecular target: T6, GalacTag6_GBSFerritinDK-PW-092; assay: 1:1 mix with the nanoparticle, room temperature, SDS-PAGE and HPLC-SEC (FIGS. 5A, 5B)
# T6 construct: also called GalacTag6 + GBS ferritin NP subunit from DK-092-PW
# T6 chain: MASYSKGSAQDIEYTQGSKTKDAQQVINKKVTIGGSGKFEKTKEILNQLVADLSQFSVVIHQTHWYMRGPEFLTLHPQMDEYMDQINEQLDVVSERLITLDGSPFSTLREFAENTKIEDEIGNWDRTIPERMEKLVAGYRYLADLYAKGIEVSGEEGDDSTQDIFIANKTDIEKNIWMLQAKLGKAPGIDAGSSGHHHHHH
# GalacTag6_fHbp [5] = molecular target: T3, GalacTag6_fHbp; assay: mixed in vitro at room temperature ~16 h, SDS-PAGE (FIG. 3A)
# Description: as §2
# GalacTag5_fHbp = molecular target: T7, GalacTag5_fHbp (Neisseria meningitidis serogroup B / …, UniProt E6MV22 32-274); assay: mixed in vitro at room temperature ~16 h, SDS-PAGE
# T7 construct: Fusion of a GBS BP1 tag peptide with N. meningitidis fHbp variant 1.1
# T7 sequence: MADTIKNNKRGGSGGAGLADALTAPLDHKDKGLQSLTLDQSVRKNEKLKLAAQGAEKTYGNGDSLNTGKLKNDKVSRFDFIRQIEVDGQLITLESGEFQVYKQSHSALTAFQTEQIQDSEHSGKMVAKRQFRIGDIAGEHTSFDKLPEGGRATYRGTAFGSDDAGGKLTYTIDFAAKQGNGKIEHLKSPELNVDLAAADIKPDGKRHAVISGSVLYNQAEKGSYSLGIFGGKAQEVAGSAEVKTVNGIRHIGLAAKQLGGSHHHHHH
# Description: as §1
binder,measurement,setting,value
GalacDock7 with MHHHHHHS leader (designed binder) MHHHHHHSNTETKPQVDKNFADKELDYANNKKDKGTVSASVGDVKKYHVGTKILKGSDYKKLIWTDSMTKGLTFNNDIAVTLDGATLDATNYKLVADDQGFRLVLTDKGLEAVAKAAKTKDVEIKITYSATLNGSAVVEVLETNDVKLDYGNNPTIENEPKEGIPVDKKITVNKTWAVDGNEVNKADETVDAVFTLQVKDGDKWVNVDSAKATAATSFKHTFENLDNAKTYRVIERVSGYAPEYVSFVNGVVTIKNNKDSNEPTPINPSEPKVVTYGRKFVKTNKDGKERLAGATFLVKKDGKYLARKSGVATDAEKAAVDSTKSALDAAVKAYNDLTKEKQEGQDGKSALATVSEKQKAYNDAFVKANYSYEWVEDKNAKNVVKLISNDKGQFEITGLTEGQYSLEETQAPTGYAKLSGDVSFNVNATSYSKGSAQDIEYTQGSKTKDA,binding result,GalacTag7_fHbp,no binding (tested: 1:1 molar ratio)
"GalacDock6 with MHHHHHHS leader (designed binder, It forms a covalent isopeptide bond with GalacTag6; also called GalacDoc6; GlacDock6) MHHHHHHSNTETKPQVDKNFADKELDYANNKKDKGTVSASVGDVKKYHVGTKILKGSDYKKLIWTDSMTKGLTFNNDIAVTLDGATLDATNYKLVADDQGFRLVLTDKGLEAVAKAAKTKDVEIKITYSATLNGSAVVEVLETNDVKLDYGNNPTIENEPKEGIPVDKKITVNKTWAVDGNEVNKADETVDAVFTLQVKDGDKWVNVDSAKATAATSFKHTFENLDNAKTYRVIERVSGYAPEYVSFVNGVVTIKNNKDSNEPTPINPSEPKVVTYGRKFVKTNKDGKERLAGATFLVKKDGKYLARKSGVATDAEKAAVDSTKSALDAAVKAYNDLTKEKQEGQDGKSALATVSEKQKAYNDAFVKANYSYEWVEDKNAKNVVKLISNDKGQFEITGLTEGQYSLEETQAPTGYAKLSGDVSFNVN",binding result,[1],binds
same,binding result,GalacTag6_fHbp [2],binds
same,binding result,GalacTag7_fHbp,no binding (tested: 1:1 molar ratio)
same,binding result,GalacTag6_fHbp (N636A),no binding (tested: 1:1 molar ratio)
same,binding result,[3],binds
same,binding result,[4],binds
GalacDock6 variant E589Q (designed binder) MHHHHHHSNTETKPQVDKNFADKELDYANNKKDKGTVSASVGDVKKYHVGTKILKGSDYKKLIWTDSMTKGLTFNNDIAVTLDGATLDATNYKLVADDQGFRLVLTDKGLEAVAKAAKTKDVEIKITYSATLNGSAVVEVLETNDVKLDYGNNPTIENEPKEGIPVDKKITVNKTWAVDGNEVNKADETVDAVFTLQVKDGDKWVNVDSAKATAATSFKHTFENLDNAKTYRVIERVSGYAPEYVSFVNGVVTIKNNKDSNEPTPINPSEPKVVTYGRKFVKTNKDGKERLAGATFLVKKDGKYLARKSGVATDAEKAAVDSTKSALDAAVKAYNDLTKEKQEGQDGKSALATVSEKQKAYNDAFVKANYSYEWVEDKNAKNVVKLISNDKGQFEITGLTEGQYSLEQTQAPTGYAKLSGDVSFNVN,binding result,GalacTag6_fHbp [5],no binding (tested: 1:1 molar ratio)
GalacDock6 variant K463A (designed binder) MHHHHHHSNTETKPQVDKNFADKELDYANNKKDKGTVSASVGDVKKYHVGTKILKGSDYKKLIWTDSMTKGLTFNNDIAVTLDGATLDATNYKLVADDQGFRLVLTDKGLEAVAKAAKTKDVEIKITYSATLNGSAVVEVLETNDVKLDYGNNPTIENEPKEGIPVDKKITVNKTWAVDGNEVNKADETVDAVFTLQVKDGDKWVNVDSAKATAATSFKHTFENLDNAKTYRVIERVSGYAPEYVSFVNGVVTIKNNKDSNEPTPINPSEPKVVTYGRKFVATNKDGKERLAGATFLVKKDGKYLARKSGVATDAEKAAVDSTKSALDAAVKAYNDLTKEKQEGQDGKSALATVSEKQKAYNDAFVKANYSYEWVEDKNAKNVVKLISNDKGQFEITGLTEGQYSLEETQAPTGYAKLSGDVSFNVN,binding result,GalacTag6_fHbp [5],no binding (tested: 1:1 molar ratio)
GalacDock6 variant E589A (designed binder) MHHHHHHSNTETKPQVDKNFADKELDYANNKKDKGTVSASVGDVKKYHVGTKILKGSDYKKLIWTDSMTKGLTFNNDIAVTLDGATLDATNYKLVADDQGFRLVLTDKGLEAVAKAAKTKDVEIKITYSATLNGSAVVEVLETNDVKLDYGNNPTIENEPKEGIPVDKKITVNKTWAVDGNEVNKADETVDAVFTLQVKDGDKWVNVDSAKATAATSFKHTFENLDNAKTYRVIERVSGYAPEYVSFVNGVVTIKNNKDSNEPTPINPSEPKVVTYGRKFVKTNKDGKERLAGATFLVKKDGKYLARKSGVATDAEKAAVDSTKSALDAAVKAYNDLTKEKQEGQDGKSALATVSEKQKAYNDAFVKANYSYEWVEDKNAKNVVKLISNDKGQFEITGLTEGQYSLEATQAPTGYAKLSGDVSFNVN,binding result,GalacTag6_fHbp [5],no binding (tested: 1:1 molar ratio)
"GalacDock5 with MHHHHHHS leader (designed binder, Expressed in E. coli and purified on a HisTrap HP column) MHHHHHHSNVVTDEPKTDKDVKKLGQDDAGYTIGEEFKWFLKSTIPANLGDYEKFEITDKFADGLTYKSVGKIKIGSKTLNRDEHYTIDEPTVDNQNTLKITFKPEKFKEIAELLKGMTLVKNQDALDKATANTDDAAFLEIPVASTINEKAVLGKAIENTFELQYDHTPDKADNPKPSNPPRKPEVHTGGKRFVKKDSTETQTLGGAEFDLLASDGTAVKWTDALIKANTNKNYIAGEAVTGQPIKLKSHTDGTFEIKGLAYAVDANAEGTAVTYKLKETKAPEGYVIPDKEIEFTVSQTSYNTKPTDITVDSAD",binding result,GalacTag5_fHbp,no binding (tested: 1:1 molar ratio)
